Measurements: US20220259268A1

Target: neutral avidin (UniProt P02701)
Assay: dynamic light scattering; each protein alone peaks near 10 nm

Chain of neutral avidin (P02701 25-152): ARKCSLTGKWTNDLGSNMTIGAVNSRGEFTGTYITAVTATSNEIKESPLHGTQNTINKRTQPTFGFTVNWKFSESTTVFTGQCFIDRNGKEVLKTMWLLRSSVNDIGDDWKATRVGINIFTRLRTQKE

In the case of “Nhead recombinant protein (AtaA59-325-GCN4pII-His)”, the particle size at the peak of the mixture (DLS) is reported as > 1000 nm.
